In patent US12077609B2, “Variable lymphocyte receptors that target the brain extracellular matrix and methods of use” (Wisconsin Alumni Research Foundation, priority 2018, dated 2024):

How the values were obtained:
bEnd.3 ECM [1] = experiment: ELISA-based screen of comparative VLR binding to bEnd.3 and 3T3 ECM; design: species or system mouse; details: VLR reduced off yeast surface; anti-c-myc detection
Description: Brain ECM-binding VLRs were identified by mining a yeast surface display library of VLRs. The library was generated from the VLR repertoire of lamprey immunized with mechanically isolated murine brain microvessel plasma membrane preparations that contained associated brain ECM (20). The library was first enriched for ECM binders via two rounds of biopanning on decellularized ECM generated by cultured mouse brain endothelial cells (bEnd.3 cell line). Next, we sought to identify ECM-binding clones that preferentially bound bEnd.3 ECM compared to control mouse fibroblast ECM (3T3 cell line). For this analysis, we picked individual yeast clones into 96-well plates and then expanded and induced them for VLR display. To enable moderate throughput analysis of the clones and avoid cumbersome subcloning of many VLR clones, we removed the VLRs directly from yeast surface via reduction. After removal, we evaluated the comparative binding of VLRs to bEnd.3 and 3T3 ECM via ELISA screening (FIG. 1A). […]
The VLR YSD library underwent two rounds of biopanning against bEnd.3 ECM to enrich for brain ECM-binding clones as previously described (20, 42). […] VLR binding was detected by incubation with one-step 3,3′,5,5′-tetramethylbenzidine (TMB) substrate for 15 to 30 min to develop signal. The reaction was stopped via acidification with 1 M HCl and quantified using absorbance signal at 450 nm. […]

bEnd.3 ECM [2] = experiment: Biopanning of individual VLR-displaying yeast clones onto bEnd.3 and 3T3 ECM, bright-field microscopy; assay type: binding, mouse; details: yeast-displayed VLR, qualitative
Procedure: FIGS. 1A-1D. Identification of VLRs that bind brain ECM. (A) A yeast surface display VLR library underwent two rounds of biopanning to enrich for clones that bind bEnd.3 ECM. Next, individual clones were grown, induced and screened for comparative binding to bEnd.3 and 3T3 ECM. VLRs were released from the yeast surface using reducing agent and VLR binding to ECM was measured by probing the anti-c-myc epitope tag in an ELISA format. (B) Fold-changes in ECM binding. The ratio of bEnd.3 ECM/3T3 ECM ELISA signals is shown for 285 VLR clones. Lead clones P3A8 and P1C10 are noted. (C) Preferential binding to bEnd.3 ECM was evaluated for selected clones by biopanning individual clones onto bEnd.3 and 3T3 ECM. Yeast binding was qualitatively analyzed by bright field microscopy. Scale bars=100 μm. (D) VLRs were reduced off the yeast surface and used in labeling murine brain sections and detected via an anti-c-myc epitope tag antibody (green). Microvessels (magenta) were labeled with […] lectin, and cell nuclei (blue) were visualized with Hoechst 33342 stain. Scale bars=20 μm.
Brain ECM-binding VLRs were identified by mining a yeast surface display library of VLRs. […] After removal, we evaluated the comparative binding of VLRs to bEnd.3 and 3T3 ECM via ELISA screening (FIG. 1A). […]

bEnd.3 ECM [3] = experiment: Affinity measurement of purified VLR on bEnd.3 ECM (ELISA, one-site equilibrium binding model); design: species or system mouse; details: three replicates, monomeric equilibrium binding model; read-out: Monomeric dissociation constant (Kd) for binding to bEnd.3 ECM
Procedure: To characterize VLR affinity for bEnd.3 ECM, dilutions of purified VLR were incubated with ECM. P1C10 VLR was diluted using a sixfold dilution scheme from 10 μM to 0.21 nM and then incubated with bEnd.3 ECM. Wells were washed five times with PBS+0.05% Tween 20 and then inubcated with anti-myc 9E10, 1:750, (BioLegend) and goat anti-mouse IgG modified with HRP. Wells were washed seven times with PBS+0.05% Tween 20 and then incubated with TMB substrate. Reaction was stopped after 15 min by acidification with 1 M HCl. Absorbance at 450 nm was quantified, and data were fit to a one-site equilibrium binding model to determine Kd as previously described (43). The amino acid sequence for VLR P1C10 is […]

U87 cells = experiment: In vitro U87 cytotoxicity assay on bEnd.3 ECM (CellTiter-Glo); assay type: cell-based, human; details: VLR-conjugated doxorubicin-loaded liposomes bound to bEnd.3 ECM, 2 h incubation, unbound washed, 72 hours culture; read-out: EC50, U87 cell viability as a function of doxorubicin concentration
Description: EC50 calculations were made using GraphPad software suite. […] Data are presented as mean pixel intensity±SD.

ELISA fold change (ratio of bEnd.3 ECM/3T3 ECM ELISA signals) (bEnd.3 ECM [1]): 4.2 fold
Kd (bEnd.3 ECM [3]): 0.0484 ± 0.00605 µM
B1: P1C10: Lamprey variable lymphocyte receptor clone binding brain ECM, SEQ ID NO:1 (protein)
chain: ACPSQCSCDQTTVKCHSRRLTSVPAGIPTTTKILRLYSNQITKLEPGVFDHLVNLEKLYISWNQLSALPVGVFDKLTKLTHLSLGYNQLKSVPRGAFDNLKSLTHIWLLNNPWDCECSDILYLKNWIVQHASIVNLQGHGGVDNVKCSGTNTPVRAVTEASTSPSKCP
modifications: Synthetic- VLR clone P1C10
Yeast clone binding to bEnd.3 ECM compared to 3T3 ECM (bEnd.3 ECM [2]): bound selectively to bEnd.3 ECM compared to 3T3 ECM
EC50 (U87 cells): 0.199 ± 0.0017 µM
